B1: "Poly(A) RNA polymerase, mitochondrial" (Homo sapiens), Q9NVV4 (parent)
chain: MAVPGVGLLTRLNLCARRRTRVQRPIVRLLSCPGTVAKDLRRDEQPSGSVETGFEDKIPKRRFSEMQNERREQAQRTVLIHCPEKISENKFLKYLSQFGPINNHFFYESFGLYAVVEFCQKESIGSLQNGTHTPSTAMETAIPFRSRFFNLKLKNQTSERSRVRSSNQLPRSNKQLFELLCYAESIDDQLNTLLKEFQLTEENTKLRYLTCSLIEDMAAAYFPDCIVRPFGSSVNTFGKLGCDLDMFLDLDETRNLSAHKISGNFLMEFQVKNVPSERIATQKILSVLGECLDHFGPGCVGVQKILNARCPLVRFSHQASGFQCDLTTNNRIALTSSELLYIYGALDSRVRALVFSVRCWARAHSLTSSIPGAWITNFSLTMMVIFFLQRRSPPILPTLDSLKTLADAEDKCVIEGNNCTFVRDLSRIKPSQNTETLELLLKEFFEYFGNFAFDKNSINIRQGREQNKPDSSPLYIQNPFETSLNISKNVSQSQLQKFVDLARESAWILQQEDTDRPSISSNRPWGLVSLLLPSAPNRKSFTKKKSNKFAIETVKNLLESLKGNRTENFTKTSGKRTISTQT
B2: LIM domain-binding protein 3 (Homo sapiens), O75112 (parent)
chain: MSYSVTLTGPGPWGFRLQGGKDFNMPLTISRITPGSKAAQSQLSQGDLVVAIDGVNTDTMTHLEAQNKIKSASYNLSLTLQKSKRPIPISTTAPPVQTPLPVIPHQKDPALDTNGSLVAPSPSPEARASPGTPGTPELRPTFSPAFSRPSAFSSLAEASDPGPPRASLRAKTSPEGARDLLGPKALPGSSQPRQYNNPIGLYSAETLREMAQMYQMSLRGKASGVGLPGGSLPIKDLAVDSASPVYQAVIKSQNKPEDEADEWARRSSNLQSRSFRILAQMTGTEFMQDPDEEALRRSSTPIEHAPVCTSQATTPLLPASAQPPAAASPSAASPPLATAAAHTAIASASTTAPASSPADSPRPQASSYSPAVAASSAPATHTSYSEGPAAPAPKPRVVTTASIRPSVYQPVPASTYSPSPGANYSPTPYTPSPAPAYTPSPAPAYTPSPVPTYTPSPAPAYTPSPAPNYNPAPSVAYSGGPAEPASRPPWVTDDSFSQKFAPGKSTTSISKQTLPRGGPAYTPAGPQVPPLARGTVQRAERFPASSRTPLCGHCNNVIRGPFLVAMGRSWHPEEFTCAYCKTSLADVCFVEEQNNVYCERCYEQFFAPLCAKCNTKIMGEVMHALRQTWHTTCFVCAACKKPFGNSLFHMEDGEPYCEKDYINLFSTKCHGCDFPVEAGDKFIEALGHTWHDTCFICAVCHVNLEGQPFYSKKDRPLCKKHAHTINL
B3: Tyrosine-protein phosphatase non-receptor type 22 (Homo sapiens), Q9Y2R2 (parent)
chain: MDQREILQKFLDEAQSKKITKEEFANEFLKLKRQSTKYKADKTYPTTVAEKPKNIKKNRYKDILPYDYSRVELSLITSDEDSSYINANFIKGVYGPKAYIATQGPLSTTLLDFWRMIWEYSVLIIVMACMEYEMGKKKCERYWAEPGEMQLEFGPFSVSCEAEKRKSDYIIRTLKVKFNSETRTIYQFHYKNWPDHDVPSSIDPILELIWDVRCYQEDDSVPICIHCSAGCGRTGVICAIDYTWMLLKDGIIPENFSVFSLIREMRTQRPSLVQTQEQYELVYNAVLELFKRQMDVIRDKHSGTESQAKHCIPEKNHTLQADSYSPNLPKSTTKAAKMMNQQRTKMEIKESSSFDFRTSEISAKEELVLHPAKSSTSFDFLELNYSFDKNADTTMKWQTKAFPIVGEPLQKHQSLDLGSLLFEGCSNSKPVNAAGRYFNSKVPITRTKSTPFELIQQRETKEVDSKENFSYLESQPHDSCFVEMQAQKVMHVSSAELNYSLPYDSKHQIRNASNVKHHDSSALGVYSYIPLVENPYFSSWPPSGTSSKMSLDLPEKQDGTVFPSSLLPTSSTSLFSYYNSHDSLSLNSPTNISSLLNQESAVLATAPRIDDEIPPPLPVRTPESFIVVEEAGEFSPNVPKSLSSAVKVKIGTSLEWGGTSEPKKFDDSVILRPSKSVKLRSPKSELHQDRSSPPPPLPERTLESFFLADEDCMQAQSIETYSTSYPDTMENSTSSKQTLKTPGKSFTRSKSLKILRNMKKSICNSCPPNKPAESVQSNNSSSFLNFGFANRFSKPKGPRNPPPTWNI
B4: Epithelial sodium channel subunit beta (Homo sapiens), P51168 (parent)
chain: MHVKKYLLKGLHRLQKGPGYTYKELLVWYCDNTNTHGPKRIICEGPKKKAMWFLLTLLFAALVCWQWGIFIRTYLSWEVSVSLSVGFKTMDFPAVTICNASPFKYSKIKHLLKDLDELMEAVLERILAPELSHANATRNLNFSIWNHTPLVLIDERNPHHPMVLDLFGDNHNGLTSSSASEKICNAHGCKMAMRLCSLNRTQCTFRNFTSATQALTEWYILQATNIFAQVPQQELVEMSYPGEQMILACLFGAEPCNYRNFTSIFYPHYGNCYIFNWGMTEKALPSANPGTEFGLKLILDIGQEDYVPFLASTAGVRLMLHEQRSYPFIRDEGIYAMSGTETSIGVLVDKLQRMGEPYSPCTVNGSEVPVQNFYSDYNTTYSIQACLRSCFQDHMIRNCNCGHYLYPLPRGEKYCNNRDFPDWAHCYSDLQMSVAQRETCIGMCKESCNDTQYKMTISMADWPSEASEDWIFHVLSQERDQSTNITLSRKGIVKLNIYFQEFNYRTIEESAANNIVWLLSNLGGQFGFWMGGSVLCLIEFGEIIIDFVWITIIKLVALAKSLRQRRAQASYAGPPPTVAELVEAHTNFGFQPDTAPRSPNTGPYPSEQALPIPGTPPPNYDSLRLQPLDVIESDSEGDAI

Variants of: B1
Conditions: with eps15_human EPS15, P42566
Chain of eps15_human EPS15, P42566 (P42566 whole entry): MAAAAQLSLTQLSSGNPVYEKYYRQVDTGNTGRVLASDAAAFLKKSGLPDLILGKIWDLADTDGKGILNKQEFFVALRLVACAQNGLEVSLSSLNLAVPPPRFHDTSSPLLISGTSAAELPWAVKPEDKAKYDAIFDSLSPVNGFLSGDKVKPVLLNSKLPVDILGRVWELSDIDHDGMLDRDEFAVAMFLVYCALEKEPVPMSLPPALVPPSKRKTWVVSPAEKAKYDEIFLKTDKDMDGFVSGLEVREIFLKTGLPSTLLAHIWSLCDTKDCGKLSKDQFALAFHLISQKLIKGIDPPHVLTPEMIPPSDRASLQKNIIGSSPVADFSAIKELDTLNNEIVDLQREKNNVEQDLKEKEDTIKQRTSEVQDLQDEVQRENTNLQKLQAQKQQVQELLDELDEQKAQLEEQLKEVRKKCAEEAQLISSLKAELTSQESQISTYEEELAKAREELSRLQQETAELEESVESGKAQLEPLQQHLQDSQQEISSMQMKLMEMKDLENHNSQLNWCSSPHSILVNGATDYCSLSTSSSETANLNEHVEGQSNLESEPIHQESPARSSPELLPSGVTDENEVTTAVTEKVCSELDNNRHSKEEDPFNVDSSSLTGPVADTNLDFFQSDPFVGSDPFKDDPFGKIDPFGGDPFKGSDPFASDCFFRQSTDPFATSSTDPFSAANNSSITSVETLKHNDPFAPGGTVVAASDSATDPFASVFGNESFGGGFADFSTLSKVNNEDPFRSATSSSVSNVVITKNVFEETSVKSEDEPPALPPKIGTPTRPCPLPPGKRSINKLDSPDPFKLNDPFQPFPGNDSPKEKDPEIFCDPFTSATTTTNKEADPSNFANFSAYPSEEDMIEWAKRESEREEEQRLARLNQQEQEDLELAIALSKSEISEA

effect of a mutation on the interaction | Variant
decreasing interaction strength | N478D

Variants of: B2
Conditions: with src_human SRC

effect of a mutation on the interaction | Variant
decreasing interaction strength | P99S

Variants of: B3
Conditions: with itsn1_human ITSN1, Q15811
Chain of itsn1_human ITSN1, Q15811 (Q15811 whole entry): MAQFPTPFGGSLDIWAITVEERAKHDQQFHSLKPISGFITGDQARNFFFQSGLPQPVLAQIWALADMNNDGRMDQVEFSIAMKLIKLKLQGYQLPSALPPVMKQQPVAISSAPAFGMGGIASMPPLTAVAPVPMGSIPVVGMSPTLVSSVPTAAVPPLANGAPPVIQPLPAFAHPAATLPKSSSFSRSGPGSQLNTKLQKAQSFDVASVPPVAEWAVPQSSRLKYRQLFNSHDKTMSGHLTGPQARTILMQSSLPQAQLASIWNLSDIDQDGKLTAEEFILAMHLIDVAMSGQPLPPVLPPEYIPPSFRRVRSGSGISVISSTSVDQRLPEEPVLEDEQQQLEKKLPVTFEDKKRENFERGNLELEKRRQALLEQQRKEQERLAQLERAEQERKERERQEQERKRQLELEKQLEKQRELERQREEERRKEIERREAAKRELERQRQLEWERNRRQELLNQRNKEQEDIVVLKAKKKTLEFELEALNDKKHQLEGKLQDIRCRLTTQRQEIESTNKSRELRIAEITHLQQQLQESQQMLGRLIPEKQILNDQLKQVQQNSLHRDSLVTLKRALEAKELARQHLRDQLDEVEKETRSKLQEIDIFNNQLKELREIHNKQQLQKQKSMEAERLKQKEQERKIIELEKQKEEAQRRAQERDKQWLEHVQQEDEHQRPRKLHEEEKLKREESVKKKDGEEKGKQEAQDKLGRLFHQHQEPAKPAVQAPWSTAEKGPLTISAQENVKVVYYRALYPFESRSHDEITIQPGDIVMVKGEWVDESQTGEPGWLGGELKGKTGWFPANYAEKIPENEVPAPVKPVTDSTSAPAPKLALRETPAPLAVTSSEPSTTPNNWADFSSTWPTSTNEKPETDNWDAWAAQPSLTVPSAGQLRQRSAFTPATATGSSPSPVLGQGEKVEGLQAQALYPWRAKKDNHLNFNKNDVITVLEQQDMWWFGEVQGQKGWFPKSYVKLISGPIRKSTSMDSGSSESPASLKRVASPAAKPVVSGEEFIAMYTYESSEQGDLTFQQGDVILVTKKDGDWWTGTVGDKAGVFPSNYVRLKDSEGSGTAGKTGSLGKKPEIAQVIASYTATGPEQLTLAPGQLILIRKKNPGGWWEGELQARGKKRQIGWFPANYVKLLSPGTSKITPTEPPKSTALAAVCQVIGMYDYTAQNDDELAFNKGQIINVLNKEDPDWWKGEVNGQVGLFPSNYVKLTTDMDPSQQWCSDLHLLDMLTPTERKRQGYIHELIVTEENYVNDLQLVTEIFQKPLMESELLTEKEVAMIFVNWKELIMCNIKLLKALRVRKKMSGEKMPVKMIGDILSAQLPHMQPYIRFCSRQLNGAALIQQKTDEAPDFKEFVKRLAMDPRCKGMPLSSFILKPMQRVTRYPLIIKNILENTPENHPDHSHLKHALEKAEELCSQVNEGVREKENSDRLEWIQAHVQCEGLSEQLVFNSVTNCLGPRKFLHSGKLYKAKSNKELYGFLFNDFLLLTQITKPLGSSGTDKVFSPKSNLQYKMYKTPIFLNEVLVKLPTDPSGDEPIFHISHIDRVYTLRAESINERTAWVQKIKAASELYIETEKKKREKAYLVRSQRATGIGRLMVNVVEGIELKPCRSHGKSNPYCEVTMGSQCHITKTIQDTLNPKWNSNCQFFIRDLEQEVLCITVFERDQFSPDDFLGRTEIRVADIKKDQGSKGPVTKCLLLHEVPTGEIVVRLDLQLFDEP

effect of a mutation on the interaction | Variant
decreasing interaction strength | R620W

Variants of: B4
Conditions: with nedd4_human NEDD4, P46934
Chain of nedd4_human NEDD4, P46934 (P46934 whole entry): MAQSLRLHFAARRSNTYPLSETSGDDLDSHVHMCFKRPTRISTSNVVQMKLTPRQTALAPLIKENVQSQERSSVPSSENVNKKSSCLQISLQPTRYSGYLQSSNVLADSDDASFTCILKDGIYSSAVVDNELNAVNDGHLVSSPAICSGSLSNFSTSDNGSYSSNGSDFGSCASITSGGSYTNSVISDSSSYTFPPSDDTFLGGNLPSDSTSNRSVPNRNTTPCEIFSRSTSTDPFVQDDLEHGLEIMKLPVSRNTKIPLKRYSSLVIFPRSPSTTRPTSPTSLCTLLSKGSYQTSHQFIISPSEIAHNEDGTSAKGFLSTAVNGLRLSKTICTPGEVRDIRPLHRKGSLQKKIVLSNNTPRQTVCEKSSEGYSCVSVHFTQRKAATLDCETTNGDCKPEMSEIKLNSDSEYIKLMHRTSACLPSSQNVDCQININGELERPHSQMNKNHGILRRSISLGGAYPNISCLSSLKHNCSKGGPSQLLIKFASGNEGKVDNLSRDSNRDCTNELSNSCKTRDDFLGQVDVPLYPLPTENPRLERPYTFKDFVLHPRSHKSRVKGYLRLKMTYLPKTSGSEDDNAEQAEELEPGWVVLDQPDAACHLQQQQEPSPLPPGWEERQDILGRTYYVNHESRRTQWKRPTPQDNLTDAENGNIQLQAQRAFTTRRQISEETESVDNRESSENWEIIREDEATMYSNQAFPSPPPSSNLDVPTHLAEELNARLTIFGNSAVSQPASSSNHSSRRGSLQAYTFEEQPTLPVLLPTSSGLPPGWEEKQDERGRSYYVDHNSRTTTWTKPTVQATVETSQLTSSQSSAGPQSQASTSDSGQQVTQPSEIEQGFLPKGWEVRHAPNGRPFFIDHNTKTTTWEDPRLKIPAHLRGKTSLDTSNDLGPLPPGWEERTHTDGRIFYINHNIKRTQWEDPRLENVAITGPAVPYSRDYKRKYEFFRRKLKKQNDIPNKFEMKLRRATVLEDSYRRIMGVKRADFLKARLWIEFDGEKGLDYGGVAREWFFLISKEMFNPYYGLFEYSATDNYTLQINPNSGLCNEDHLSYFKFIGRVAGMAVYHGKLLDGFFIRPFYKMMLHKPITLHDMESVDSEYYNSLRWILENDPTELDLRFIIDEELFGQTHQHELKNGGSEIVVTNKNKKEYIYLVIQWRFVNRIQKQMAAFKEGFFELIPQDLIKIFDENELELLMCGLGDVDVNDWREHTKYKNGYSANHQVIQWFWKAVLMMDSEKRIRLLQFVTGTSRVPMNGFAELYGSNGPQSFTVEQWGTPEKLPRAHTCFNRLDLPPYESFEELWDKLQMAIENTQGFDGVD

effect of a mutation on the interaction | Variant
decreasing interaction strength | P616R

Variants of: B4
Conditions: with nedd4_human NEDD4, P46934
Remark: another data set of the same source

effect of a mutation on the interaction | Variant
decreasing interaction strength | Y620H
decreasing interaction strength | P618R

Variants of: B4
Conditions: with wwtr1_human WWTR1, Q9GZV5
Chain of wwtr1_human WWTR1, Q9GZV5 (Q9GZV5 whole entry): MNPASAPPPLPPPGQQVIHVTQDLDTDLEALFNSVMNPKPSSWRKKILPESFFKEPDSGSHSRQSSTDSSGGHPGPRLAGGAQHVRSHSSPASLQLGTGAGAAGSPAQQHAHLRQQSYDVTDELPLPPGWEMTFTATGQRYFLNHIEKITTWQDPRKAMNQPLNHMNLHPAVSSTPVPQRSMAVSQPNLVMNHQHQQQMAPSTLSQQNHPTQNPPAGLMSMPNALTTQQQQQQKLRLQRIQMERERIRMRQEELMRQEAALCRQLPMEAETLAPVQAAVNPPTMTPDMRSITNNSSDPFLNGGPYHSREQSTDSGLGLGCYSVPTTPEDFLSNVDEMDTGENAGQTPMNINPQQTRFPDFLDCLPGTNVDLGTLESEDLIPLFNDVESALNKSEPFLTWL

effect of a mutation on the interaction | Variant
decreasing interaction strength | Y620H
decreasing interaction strength | P618R
